The text below walks through data of patent US20260117203A1, “MUTANT KETOREDUCTASE WITH INCREASED KETOREDUCTASE ACTIVITY AS WELL AS METHODS AND USES INVOLVING THE SAME” (Hoffmann-La Roche Inc., priority 2023, published 2026).

Data set [1] has as its target T1, Sporidiobolus salmonicolor ketoreductase, wild type (WT), UniProt Q9UUN9, SEQ ID NO: 1 (Sporobolomyces salmonicolor, UniProt Q9UUN9).
T1 sequence (Q9UUN9 1-343): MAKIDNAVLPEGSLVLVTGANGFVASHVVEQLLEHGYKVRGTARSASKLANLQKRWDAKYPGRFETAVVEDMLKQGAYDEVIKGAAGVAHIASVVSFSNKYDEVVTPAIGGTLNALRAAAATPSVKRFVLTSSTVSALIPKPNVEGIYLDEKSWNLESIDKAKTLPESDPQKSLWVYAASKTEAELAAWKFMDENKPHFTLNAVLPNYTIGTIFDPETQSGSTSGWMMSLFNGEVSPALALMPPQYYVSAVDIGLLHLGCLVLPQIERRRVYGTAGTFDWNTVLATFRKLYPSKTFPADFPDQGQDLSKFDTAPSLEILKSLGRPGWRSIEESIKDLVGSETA
The data set can be described thus: Kinetic characterization (app. KM, app. kcat), Table 9c, wild type. Format: biochemical. The settings on record: reference = 1.

For data set [2], the target named is T2, Sporidiobolus salmonicolor ketoreductase variant E00128, Trp97_Met241_Trp242_Ser245, SEQ ID NO: 2, His-tag (Sporobolomyces salmonicolor, UniProt Q9UUN9, F97W/L241M/M242W/Q245S).
T2 sequence (Q9UUN9 1-343 F97W/L241M/M242W/Q245S): T1 sequence (Q9UUN9 1-343) with F97W, L241M, M242W, Q245S
As to the kind of experiment: Kinetic characterization (app. KM, app. kcat), Table 9c, variant E00128. Format: biochemical. The settings on record: E00128, relative to WT = 1.

For data set [3], the target named is T3, Sporidiobolus salmonicolor ketoreductase variant E00144, Trp97_Met241_Trp242_Ser245_Met316_Met342, SEQ ID NO: 3, His-tag (Sporobolomyces salmonicolor, UniProt Q9UUN9, F97W/L241M/L316M/M242W/Q245S/T342M).
T3 sequence (Q9UUN9 1-343 F97W/L241M/M242W/Q245S/L316M/T342M): T1 sequence (Q9UUN9 1-343) with F97W, L241M, M242W, Q245S, L316M, T342M
The data set can be described thus: Kinetic characterization (app. KM, app. kcat), Table 9c, variant E00144. The format is biochemical. The conditions noted are these: E00144, relative to WT = 1.

Data set [4] concerns the target T4, Sporidiobolus salmonicolor ketoreductase variant E00158, Trp97_Lys238_Met241_Trp242_Ser245_Met316_Met342, SEQ ID NO: 6, His-tag (Sporobolomyces salmonicolor, UniProt Q9UUN9, A238K/F97W/L241M/L316M/M242W/Q245S/T342M).
T4 sequence (Q9UUN9 1-343 F97W/A238K/L241M/M242W/Q245S/L316M/T342M): T1 sequence (Q9UUN9 1-343) with F97W, A238K, L241M, M242W, Q245S, L316M, T342M
The data set can be described thus: Kinetic characterization (app. KM, app. kcat), Table 9c, variant E00158. The conditions noted are these: E00158, relative to WT = 1. The format is biochemical.

Data set [5] addresses T5, Sporidiobolus salmonicolor ketoreductase variant E00174, Trp97_Lys238_Met241_Trp242_Ser245_Gly246_Met316_Met342, SEQ ID NO: 7, His-tag (Sporobolomyces salmonicolor, UniProt Q9UUN9, A238K/F97W/L241M/L316M/M242W/Q245S/T342M/Y246G).
T5 sequence (Q9UUN9 1-343 F97W/A238K/L241M/M242W/Q245S/Y246G/L316M/T342M): T1 sequence (Q9UUN9 1-343) with F97W, A238K, L241M, M242W, Q245S, Y246G, L316M, T342M
As to the kind of experiment: Kinetic characterization (app. KM, app. kcat), Table 9c, variant E00174. The format is biochemical.

Data set [6] addresses T6, Sporidiobolus salmonicolor ketoreductase variant E00184, Trp97_Ala224_Lys238_Met241_Trp242_Ser245_Gly246_Met316_Met342, SEQ ID NO: 8, His-tag (Sporobolomyces salmonicolor, UniProt Q9UUN9, A238K/F97W/L241M/L316M/M242W/Q245S/S224A/T342M/Y246G).
T6 sequence (Q9UUN9 1-343 F97W/S224A/A238K/L241M/M242W/Q245S/Y246G/L316M/T342M): T1 sequence (Q9UUN9 1-343) with F97W, S224A, A238K, L241M, M242W, Q245S, Y246G, L316M, T342M
The data set can be described thus: Kinetic characterization (app. KM, app. kcat), Table 9c, variant E00184 (first line). The format is biochemical. The conditions noted are these: relative to WT = 1.

For data set [7], the target named is T7, Sporidiobolus salmonicolor ketoreductase variant E00184 (second line so labelled); in Table 9b W97 V134 A224 K238 M241 W242 S245 G246 M316 M342, the mutations of (Sporobolomyces salmonicolor, UniProt Q9UUN9, A238K/F97W/L241M/L316M/M242W/Q245S/S224A/T134V/T342M/Y246G).
T7 construct: second row labelled E00184, evidently E00185
T7 sequence (Q9UUN9 1-343 F97W/T134V/S224A/A238K/L241M/M242W/Q245S/Y246G/L316M/T342M): T1 sequence (Q9UUN9 1-343) with F97W, T134V, S224A, A238K, L241M, M242W, Q245S, Y246G, L316M, T342M
As to the kind of experiment: Kinetic characterization (app. KM, app. kcat), Table 9c, variant E00184 (second line). The format is biochemical. The conditions noted are these: relative to WT = 1.

Substrate in data set [8]: C[C@@H]1CC(=O)c2ncnc(N3CCN(C(=O)OC(C)(C)C)CC3)c21
The data set can be described thus: Kinetic characterization (app. KM, app. kcat), Table 9c, variant E00144. Format: biochemical, Sporidiobolus salmonicolor. The settings on record: other: E00144; pH 7.0.

Substrate in data set [9]: C[C@@H]1CC(=O)c2ncnc(N3CCN(C(=O)OC(C)(C)C)CC3)c21
As to the kind of experiment: Kinetic characterization (app. KM, app. kcat), Table 9c, variant E00184 (first line). The conditions noted are these: other: E00184, first line; pH 7.0. Format: biochemical, Sporidiobolus salmonicolor.

Substrate in data set [10]: C[C@@H]1CC(=O)c2ncnc(N3CCN(C(=O)OC(C)(C)C)CC3)c21
The data set can be described thus: Kinetic characterization (app. KM, app. kcat), Table 9c, variant E00128. The settings on record: other: E00128; pH 7.0. The format is biochemical, Sporidiobolus salmonicolor.

Substrate in data set [11]: C[C@@H]1CC(=O)c2ncnc(N3CCN(C(=O)OC(C)(C)C)CC3)c21
As to the kind of experiment: Kinetic characterization (app. KM, app. kcat), Table 9c, wild type. Format: biochemical, Sporidiobolus salmonicolor. The conditions noted are these: other: WT; pH 7.0.

Substrate in data set [12]: C[C@@H]1CC(=O)c2ncnc(N3CCN(C(=O)OC(C)(C)C)CC3)c21
As to the kind of experiment: Kinetic characterization (app. KM, app. kcat), Table 9c, variant E00184 (second line). Format: biochemical, Sporidiobolus salmonicolor. The settings on record: other: E00184, second line; pH 7.0.

Substrate in data set [13]: C[C@@H]1CC(=O)c2ncnc(N3CCN(C(=O)OC(C)(C)C)CC3)c21
As to the kind of experiment: Kinetic characterization (app. KM, app. kcat), Table 9c, variant E00158. The format is biochemical, Sporidiobolus salmonicolor. The settings on record: other: E00158; pH 7.0.

A word on the Km: it is the substrate concentration at which the rate is half of its maximum. What is called kcat is the number of substrate molecules converted per active site and unit of time at saturation. Usually kcat/Km stands for the turnover number divided by the Michaelis constant.

Positions count from the first letter of the chain named. Numbers in names are those of the source.

Consider `C[C@@H]1CC(=O)c2ncnc(N3CCN(C(=O)OC(C)(C)C)CC3)c21` [ketone of formula Ib], for which the rel. kcat worked out at 1 in data set [1]; 12 in [2]; 13 in data set [3]; 31 in data set [4]; 94 in data set [5] (relative to WT = 1, substrate saturation not reached); 43 in [6]. The rel. kcat in [7] is recorded as 64. Moreover, in data set [5] (substrate saturation not reached), the app. kcat is 45.8 ± 2.4 min−^1.

B1: Sporidiobolus salmonicolor ketoreductase variant E00144, Trp97_Met241_Trp242_Ser245_Met316_Met342, SEQ ID NO: 3, His-tag (Sporobolomyces salmonicolor; … (protein)
chain: T1 sequence (Q9UUN9 1-343) with F97W, L241M, M242W, Q245S, L316M, T342M
Take B1: in data set [8], the Km came to 175.2 ± 9.9 µM, the kcat stood at 0.103 ± 0.00333 s⁻¹ and the kcat/Km was found to be 593 M⁻¹ s⁻¹.

B2: Sporidiobolus salmonicolor ketoreductase variant E00184, Trp97_Ala224_Lys238_Met241_Trp242_Ser245_Gly246_Met316_Met342, SEQ ID NO: 8, His-tag (Sporobolomyces … (protein)
chain: T1 sequence (Q9UUN9 1-343) with F97W, S224A, A238K, L241M, M242W, Q245S, Y246G, L316M, T342M
Take B2: in data set [9], the Michaelis constant (Km) is 471.7 ± 34.6 µM, the catalytic constant (kcat) came to 0.355 ± 0.0167 s⁻¹ and the kcat/Km stood at 753 M⁻¹ s⁻¹.

B3: Sporidiobolus salmonicolor ketoreductase variant E00128, Trp97_Met241_Trp242_Ser245, SEQ ID NO: 2, His-tag (Sporobolomyces salmonicolor; F97W/L241M/M242W/Q245S) (protein)
chain: T1 sequence (Q9UUN9 1-343) with F97W, L241M, M242W, Q245S
B3: in data set [10], the Michaelis constant (Km) came to 162.8 ± 7.8 µM, the kcat stood at 0.0967 ± 0.00167 s⁻¹ and the kcat/Km was found to be 592 M⁻¹ s⁻¹.

B4: Sporidiobolus salmonicolor ketoreductase, wild type (WT), UniProt Q9UUN9, SEQ ID NO: 1 (Sporobolomyces salmonicolor) (protein)
chain: T1 sequence (Q9UUN9 1-343)
Turning to B4, in data set [11], the Michaelis constant (Km) amounted to 11.9 ± 1.1 µM, the catalytic constant (kcat) was 0.00817 ± 0.000333 s⁻¹ and the catalytic efficiency (kcat/Km) turned out to be 683 M⁻¹ s⁻¹.

B5: Sporidiobolus salmonicolor ketoreductase variant E00184 (second line so labelled; in Table 9b W97 V134 A224 K238 M241 W242 S245 G246 M316 M342, the mutations … (protein)
chain: T1 sequence (Q9UUN9 1-343) with F97W, T134V, S224A, A238K, L241M, M242W, Q245S, Y246G, L316M, T342M
notes: second row labelled E00184, evidently E00185
As for B5, in data set [12], the Km is 143.5 ± 5.5 µM, the kcat is 0.525 ± 0.0133 s⁻¹ and the kcat/Km was found to be 3660 M⁻¹ s⁻¹.

B6: Sporidiobolus salmonicolor ketoreductase variant E00158, Trp97_Lys238_Met241_Trp242_Ser245_Met316_Met342, SEQ ID NO: 6, His-tag (Sporobolomyces salmonicolor; … (protein)
chain: T1 sequence (Q9UUN9 1-343) with F97W, A238K, L241M, M242W, Q245S, L316M, T342M
Turning to B6, in [13], the Km came to 299.7 ± 7.9 µM, the turnover number (kcat) stood at 0.255 ± 0.00667 s⁻¹ and the catalytic efficiency (kcat/Km) stood at 853 M⁻¹ s⁻¹.
